In one test the target is T1, GRP (Mus musculus, UniProt O08967).
T1 construct: GST (N, cleaved yes); made in house; host or cells: GRP from pGEX-4T; ARF1 from baculovirus-infected Sf-9 cells
T1 sequence (O08967 1-399): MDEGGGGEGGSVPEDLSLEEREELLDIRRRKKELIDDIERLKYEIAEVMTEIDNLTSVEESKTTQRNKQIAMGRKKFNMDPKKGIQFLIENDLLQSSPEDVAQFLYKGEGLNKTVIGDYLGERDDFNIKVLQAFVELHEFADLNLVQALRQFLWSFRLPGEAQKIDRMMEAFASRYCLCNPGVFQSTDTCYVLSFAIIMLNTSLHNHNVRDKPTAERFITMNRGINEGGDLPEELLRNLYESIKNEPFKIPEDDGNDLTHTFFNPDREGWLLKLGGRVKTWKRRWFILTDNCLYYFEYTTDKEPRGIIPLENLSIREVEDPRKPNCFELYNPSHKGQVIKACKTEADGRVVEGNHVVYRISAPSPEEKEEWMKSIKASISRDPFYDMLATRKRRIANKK
Briefly: Effect of phosphoinositides on GRP-catalyzed ARF1 guanine nucleotide exchange. The class given is biochemical. Conditions: 25 μM lipid, 0.15 μM GRP.

For a further test, the system named is ARNO. Conditions: vesicles with high concentrations of negatively charged phospholipids; cited from earlier work.
A further test deals with PH domain of PLCγ1. Conditions: cited from earlier work.
The target of a further test is T2, PH domain of GRP (Mus musculus, UniProt O08967).
T2 sequence (O08967 239-399): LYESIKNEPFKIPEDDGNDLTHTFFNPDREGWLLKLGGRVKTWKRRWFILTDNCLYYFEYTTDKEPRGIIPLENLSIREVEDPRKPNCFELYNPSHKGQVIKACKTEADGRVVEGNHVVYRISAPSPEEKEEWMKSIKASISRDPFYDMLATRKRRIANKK
Briefly: Competition for [3H]dioctanoyl PtdIns(3,4,5)P3 binding to the PH domain of GRP. More on the design: GST fused to the PH region of GRP (amino acids 239-399); made in house; host or cells: bacteria. Conditions: FIG. 9B. How it is done:
Binding assays were performed as described in (Rameh, L. E. et al., J. Biol. Chem., In Press). Briefly, GST fused to the PH region of GRP (amino acids 239-399) was bound to glutathione immobilized on agarose beads (Sigma). Synthetic [^3 H]-labeled diotanoyl PtdIns(3,4,5)P3 was added, and after one hour the beads were separated from the supernatant by centrifugation. The amount of [^3 H]-PtdIns(3,4,5)P3 bound to the PH domain was calculated by subtracting the amount of free [^3 H] present in supernatants from GST-GRP from the amount of free [^3 H] in supernatants from control GST. The data was fitted to the equation [bound]=Bmax×[free]/(KD + [free]) by least squares curve fit. For the competition assays the beads containing the GST-fusion proteins were incubated with 2.5 μM[^3 H]-labeled dioctanoyl PtdIns(3,4,5)P3 bound was calculated based on the amount of [^3 H] bound to the beads in the absence of competitor. The total [^3 H] bound to the GST control was less then 0.5% of the total [^3 H] bound to GRP PH domain. The data was fitted to the equation % bound=100-n×L/Klapp +L) where n is the % specific binding, L is the concentration of unlabeled lipid added and Klapp is the apparent competitive dissociation constant. The rations of the apparent dissociation constants accurately reflect the ratios of the true dissociation constants under the present experimental conditions (Rameh, L. E. et al., J. Biol. Chem., In Press).
The data depicted in FIG. 8 indicate that receptor signaling through PI3-kinases, which generates PtdIns(3,4,5)P3, may specifically regulate ARF proteins through GRP. In order to further test this, the relative binding affinities of PtdIns(3,4,5)P3 versus PtdIns (4,5)P2, which is constitutively present in cell membranes, for the PH domain of GRP were determined. A GST fusion protein of the PH domain of GRP was incubated with various concentrations of synthetic [^3 H]dioctanoyl PtdIns(3,4,5)P3 and binding was determined (FIG. 9A). These experiments show high affinity binding of this polyphosphoinositide,with a calculated Kd=0.5 μM.

Test [1] deals with ARF5. Conditions: cited from earlier work.
Test [2] deals with integrin β2 cytoplasmic domain. Conditions: through Sec7 homology region; cited from earlier work.
Test [3] is described as follows: Binding of [32P]PI(3,4,5)P3 by GST fusion proteins spotted on nitrocellulose. Conditions: 150 pmol protein on nitrocellulose; relative to GST. Here is the method: The 3'-phosphatidylinositol probes labeled at the 3' position were generated using GST-p110 PI3-kinase purified from recombinant bacculovirus infected Sf 9 cells, using either purified phosphatidylinositol phosphates or crude brain lipid. Briefly, 20 mg phospholipid in chloroform was dried under N2 and resuspended in […] of buffer containing Tris-HCl pH 7.4, EDTA 1 mM and incubated in […] phopsphorylation media containing 20 mM Tris-HCl pH 7.4, 100 mM NaCl, 10 mM MgCl2, 0.5 mM EGTA. 0.2 mM adenosine, GST-p110 and 5-10 mCi [g-^32 P]ATP (5 Ci/umol). The reaction was carried out for 2 h at room temperature, quenched by addition of 0.2 ml of 1M HCl, followed by 0.5 ml of chloroform:methanol (1:1). The organic phase containing phospholipids was washed 4 times with 0.4 ml of methanol:HCl (1: 1) and stored at -70° C. until use. Just before use, the lipid was dried under a stream of nitrogen with phosphatidyl serine corresponding to a final concentration of 20 mg/ml. The identities of the PI3-P, PI3,4-P2 and PI3,4,5-P3 were confirmed by TLC and HPLC analysis.
To generate the GST fusion proteins, PCR reactions using the primers: […] (SEQ ID NO:9) and […] (SEQ ID NO:10) for the GST-N construct, […] (SEQ ID NO:11) and […] (SEQ ID NO:12) for the GST-Sec7 construct, […] (SEQ ID NO:13) and […] (SEQ ID NO:14) for the GSTPH construct, and […] (SEQ ID NO:15) and […] (SEQ ID NO:16) for the GSTGRP constructs. The sequences of the PCR products were verified, and cloned into pGEX-5X-3 in the EcoRI and Xba 1 sites. The bacteria were lysed and the fusion proteins were bound to gluthathione agarose according to standard procedures. Elution was effected by incubation of the beads with one volume 20 mM Hepes, 100 mM NaCl, 1 mM dithiotreitol (H buffer) supplemented with 10 mM gluthatione and 1% sodium cholate, and the eluate was dialyzed extensively against H buffer. For binding assays, protein was bound to nitrocellulose using a BIO-RAD BIO-DOT™ apparatus, using 150 pmol per well for binding assays and 7.5 pmol for competition assays. The nitrocellulose was washed in assay buffer, and 3 mm circles of the filters containing the protein were cut out and incubated in […] assay buffer with the relevant lipids and competitors for 2 h under constant agitation. The filters were washed four times with 1 mL assay buffer and counted in a scintillation counter.
In order to determine whether PI(3,4,5)P3 binding could be localized to specific sequences within the GRP structure, GST fusion proteins containing either residues 239 to 399 (PH domain), residues 52 to 260 (Sec7 domain), or residues 5 to 71, full length GRP residues 5-399 were expressed in bacteria and purified on glutathione-conjugated beads. […] 150 pmol of the proteins were spotted on nitrocellulose filters, incubated with [^32 P]PI(3,4,5)P3 and the amount of bound lipid was determined as described. The values are the means of the quadruplicate determinations, and the error bars are the standard deviations. […] Nitrocellulose filters with GST-PH were incubated with 25,000 cpm of each of the phospholipids and the amount of bound lipid determined as described above. The values are the means of quadruplicate determinations and the error bars are the standard deviations. […] Although previous work has shown that PH domain from PLCδ (Lemmon et al. (1995) supra) and various other proteins bind 4,5-polyphosphoinositide, none have been reported to preferentially associate with a 3-polyphosphoinositide. […]

A further test deals with ARF1. Briefly: ARF1 guanine nucleotide exchange ([35S]GTPγS binding). The class given is biochemical. In general terms: GTPγS is a poorly hydrolysed GTP analogue; its binding reports G protein activation.
The subject of test [4] is ARF5. Briefly: ARF5 guanine nucleotide exchange ([35S]GTPγS binding). The class given is biochemical.
Another test deals with ARF6. Put plainly: ARF6 guanine nucleotide exchange ([35S]GTPγS binding). The class given is biochemical.
The mark [5] stands for this setting: 40 minutes, phosphatidylcholine and cholate.

“Also recorded” adds a separate entry of the source.

Take PtdIns(4,5)P2: the “stimulation of ARF1 exchange activity in the presence of GRP” value on GRP (0.05% cholate and 0.05% CHAPS (low negative charge)) is given as “little or no effect”; at GRP (0.1% cholate (high negative charge)), “stimulated”. Also, in the test with ARNO, the “recruitment of ARNO and stimulation of guanine nucleotide exchange on ARF1” value is listed as “causing stimulation of guanine nucleotide exchange on ARF1; also recorded: sufficient for its recruitment to membranes as well as activation of ARF exchange”. Moreover, the “interaction with isolated PH domain of PLCγ1” value with PH domain of PLCγ1 is on record as “high affinity”. For the same molecule, the “affinity, fold lower than PtdIns(3,4,5)P3” value at PH domain of GRP came to 50 fold.

B1: cytohesin-1: B2-1 encoded protein (denoted cytohesin 1) (protein)
chain: MEEDDSYVPSDLTAEERQELENIRRRKQELLADIQRLKDEIAEVANEIENLGSTEERKNMQRNKQVAMGRKKFNMDPKKGIQFLIENDLLKNTCEDIAQFLYKGEGLNKTAIGDYLGERDEFNIQVLHAFVELHEFTDLNLVQALRQFLWSFRLPGEAQKIDRMMEAFAQRYCQCNNGVFQSTDTCYVLSFAIIMLNTSLHNPNVKDKPTVERFIAMNRGINDGGDLPEELLRNLYESIKNEPFKIPEDDGNDLTHTFFNPDREGWLLKLGGGRVKTWKRRWFILTDNCLYYFEYTTDKEPRGIIPLENLSIREVEDSKKPNCFELYIPDNKDQVIKACKTEADGRWEGNHTVYRISAPTPEEKEEWIKCIKAAISRDPFYEMLAARKKKVSSTKRH
With B1, the “ARF5 as substrate for cytohesin-1” value in the test on ARF5 [1] is “not to be a substrate”. In addition, in [2], the “binding of the integrin β2 cytoplasmic domain” value was “high affinity”.

B2: GRP: general receptor for phosphoinositides, mouse protein with SEC7 and PH domains (protein)
chain: T1 sequence (O08967 1-399)
For B2, the “binding of [^32 P]PI(3,4,5)P3 by GST fusion protein” value in test [3] is reported as “extensive binding”. The “concentration that maximally activates labeled nucleotide binding to ARF1” value with ARF1 (setting [5]) worked out at 2.5 µM. For the same molecule, the “ARF1 guanine nucleotide exchange” value in the test on ARF1 ([^35 S]GTPγS binding to immunoprecipitated ARF1) was “catalyze nucleotide exchange; also recorded: selectively catalyzes”. Besides, in the test on ARF5 [4] (setting [5]), the “concentration that maximally activates labeled nucleotide binding to ARF5” value was 2.5 µM. Also, the “ARF5 guanine nucleotide exchange” value in the test on ARF5 [4] ([^35 S]GTPγS binding) was “significantly enhanced; also recorded: catalyze nucleotide exchange; also recorded: selectively catalyzes”. Further, the “ARF6 guanine nucleotide exchange” value with ARF6 was “no effect and not”.

(Values after patent publication US6194173A, “Binding proteins for phosphoinositides, GRP1 or general receptor 1 for phophoinositide” (priority 1999, dated 2001).)
